Experimental data published in article doi:10.64898/2025.12.19.695307 (bioRxiv, 2025).
Changes are numbered by the printed parent chain.

B1: BD56-104-R1-32 HCDR3 (antibody, V domains shown)
VH: QVQLVQSGAEVKTPGSSVKVSCKASGGTFGSHSITWVRQAPGQGLEWMGRVIPILGIPDFAESFQGRVAITADRSTSTAHMELSRLRSEDTAVYYCARENGYSGYGAAANFDLWGQGTLVTVSS
VL: QSVLTQPPSVSGAPGQRVTISCTGSNSNIGAGYDVHWYRQLPGTAPKLLIYVNNNRPSGVPDRFSGSRSGASASLAITGLQAEDEAEYYCQSYDSSLSGSIFGGGTKLTVL
B2: BD56-104 (antibody, V domains shown)
VH: B1 VH with E99D, N100V, Y105S, A107S, A108S, A109N, N110Y, L113S
VL: B1 VL
B3: C092 (antibody, V domains shown)
VH: QVQLVQSGAEVKKPGSSVKVSCKASGGSFTNHFISWVRQAPGQGLEWMGRIIPILGTANYAQNFQGRVMMTADKSTSTAYMELSSLRSEDTAVYYCARDSGYSGYGSTYYMDVWGKGTTVTVSS
VL: QSVLTQPPSVSGAPGQRVTISCTGSNSNIGAGYDVHWYQQLPGAAPKLLIYGNNNRPSGVPDRFSGSKSDTSASLAITGLQVEDEADYYCQSYDSSLSDSVFGSGTKVTVL
B4: R1-32-AAM (R1-32-artificial-affinity-matured) (antibody, V domains shown)
VH: EVQLVESGAEVKKPGSSVKVSCKASGGTFSSYFISWVRQAPGQGLEWMGGIIPILGIADYAEKFQGRVTITADKSTSTAYMELSSLRSEDTAVYYCARENGYSGYGAAYNFDLWGRGTLVTVSS
VL: B3 VL with N26D, A44T, N54S, V82A, S104G, V108L
B5: R1-32 (antibody, V domains shown)
VH: B4 VH with F33A, D59N, E62Q, Y109A
VL: B3 VL with N26S, A44T, N54S, D70G, V82A, D99G, S104G, V108L
B6: BD56-597 (antibody, V domains shown)
VH: QVQLVQSGAEVKKPGSSVKVSCKASGGTFSTYPISWVRQAPGQGVEWMGAIIPILGTTDYAQIFQGRVTITADKSTSTAYMELSSLRPEDTAVYYCARERGYSGYGAAYYFDSWGQGTLVTVSS
VL: B1 VL with N26D, R39Q, N54I, R68K, G70A, A71T, E87D, S100V, I101V
B7: C807 (antibody, V domains shown)
VH: QVQLVQSGAEAKKPGSSVKVSCKASGGTFKSYIINWVRQAPGQGLEWMGEIIPIFGTANYAQKFQGRVTSTADESTSTAYMELSSLKSEDTAVYYCARGRGYSGYGASYYFDYWGQGTLVTVSS
VL: B1 VL with R39Q, V52A, N54S, R68K, A71T, E87D, S96G, I101V
B8: ZL525 (antibody, V domains shown)
V domain 1: QVQLVQSGAEVKKPGSSMKVSCQASGGTFSSHPISWIRQAPGQGLEWMGRIIPIAGMTDYGQKFQGRITITADTSTSTSYVELRGLRSQDTAFYYCAKDVGYSDYGSAYYFHTWGQGTLITVSS
V domain 2: QSVLTQPPSVSGAPGQRVTISCTGSNSNIGAGYDVHWYQQLPGTAPKLLIYRNNKRPSGVPDRFSGSKSDTSASLAITGLQAEDEAHYYCQSFDSSLGGSLFGGGTKLAVL

What was measured:
Assay in all cases: BLI
SARS-CoV-2 wild-type RBD = SARS-CoV-2 wild-type RBD (SARS-CoV-2, UniProt P0DTC2)
Bat-RaTG13 RBD = Bat-RaTG13 RBD (Bat coronavirus RaTG13, UniProt A0ABF7PLN6)
Bat-RsSHC014 RBD = Bat-RsSHC014 RBD (Bat SARS-like coronavirus RsSHC014, UniProt U5WLK5)
Bat-WIV1 RBD = Bat-WIV1 RBD (Bat SARS-like coronavirus WIV1, UniProt U5WI05)
GX2013 RBD = GX2013 RBD (SARSr-CoV BtRs-BetaCoV/GX2013)
HeB2013 RBD = HeB2013 RBD (SARSr-CoV BtRf-BetaCoV/HeB2013)
SARS-CoV-1 RBD = SARS-CoV-1 RBD (SARS-CoV-1, strain not named, UniProt P59594)

| Binder | binding result (SARS-CoV-2 wild-type RBD) | binding result (Bat-RaTG13 RBD) | binding result (Bat-RsSHC014 RBD) | binding result (Bat-WIV1 RBD) | binding result (GX2013 RBD) | binding result (HeB2013 RBD) | binding result (SARS-CoV-1 RBD) |
| --- | --- | --- | --- | --- | --- | --- | --- |
| B1 | binds |  |  |  |  |  |  |
| B2 | binds | binds | binds | no binding (tested: 200 nM RBD) | binds | binds |  |
| B3 | binds | binds | binds | binds | binds | binds |  |
| B4 | binds |  |  |  |  |  |  |
| B5 | binds | binds | binds |  |  |  |  |
| B6 | binds | binds | binds | binds | binds | binds |  |
| B7 | binds | binds | binds | binds | binds | binds |  |
| B8 | binds | binds | binds | binds | binds | binds | binds |
